Experimental data: patent US20210379110A1 (LENTIGEN TECHNOLOGY, published 2021)

What was measured:
[1] = molecular target: T1, TSLPR-Fc peptide (R&D systems) (UniProt Q9HC73 25-231); assay: flow cytometry, CAR T cells stained with TSLPR-Fc then anti-Fc AF647
T1 construct: Bought reagent (R&D systems); also called TSLPR-Fc reagent; not shown: Fc part of the bought reagent
T1 sequence (looked up): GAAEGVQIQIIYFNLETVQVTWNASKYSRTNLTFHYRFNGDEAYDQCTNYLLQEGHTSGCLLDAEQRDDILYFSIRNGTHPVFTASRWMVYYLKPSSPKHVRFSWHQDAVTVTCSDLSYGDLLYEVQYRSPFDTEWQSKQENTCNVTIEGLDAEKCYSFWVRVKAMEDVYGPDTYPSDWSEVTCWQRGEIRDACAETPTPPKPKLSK
Experimental: Flow cytometric analysis was performed to detect the CAR molecule surface expression. Half million of harvested primary T cells were washed and stained with cold AutoMACS buffer supplemented with 0.5% bovine serum albumin (Miltenyi Biotec, Bergisch Gladbach, Germany), and resuspended in 200 ul Running Buffer before acquired by MACSQuant®10 Analyzer (Miltenyi Biotec Bergisch Gladbach, Germany). For CAR surface expression, TSLPR Fc, CD19Fc and CD22Fc peptide (R&D systems, Minneapolis, Minn.) were used followed anti Fc-AF647 (Jackson ImmunoResearch, West Grove, Pa.). T cell subtypes was further identified with anti-CD4 antibody conjugated to VioBlue fluorophore (Miltenyi Biotec Bergisch Gladbach, Germany). Dead cells in all studies were excluded by 7AAD staining (BD Biosciences, San Jose, Calif.). Flow data were analyzed with MACSQuantify software.
Specific detection of each scFv domain within the CAR structure was facilitated by CAR T cell staining with TSLPR-Fc peptide, or CD19-Fc peptide, followed by a secondary staining with anti-Fc AF647-labeled reagent, and fluorescence was detected in the APC channel. In CAR construct D0101, in which CD19 scFv was membrane-proximal and the TSLPR scFv was membrane-distal, the TSLPR scFv was detected at 44% of the transduced cells, and CD19 scFv was detected at 31%. In CAR construct D0102 with the reverse binder orientation (i.e. the TSLPR scFv membrane-proximal, and CD19 scFv membrane-distal), the detection levels were 85% and 75% for scFv TSLPR and CD19, respectively (FIG. 2).

[2] = molecular target: T2, CD22-Fc peptide (R&D systems) (UniProt P20273 20-687); assay: flow cytometry, CAR T cells stained with CD22-Fc then anti-Fc AF647
T2 construct: Bought reagent (R&D systems); not shown: Fc part of the bought reagent
T2 sequence (looked up): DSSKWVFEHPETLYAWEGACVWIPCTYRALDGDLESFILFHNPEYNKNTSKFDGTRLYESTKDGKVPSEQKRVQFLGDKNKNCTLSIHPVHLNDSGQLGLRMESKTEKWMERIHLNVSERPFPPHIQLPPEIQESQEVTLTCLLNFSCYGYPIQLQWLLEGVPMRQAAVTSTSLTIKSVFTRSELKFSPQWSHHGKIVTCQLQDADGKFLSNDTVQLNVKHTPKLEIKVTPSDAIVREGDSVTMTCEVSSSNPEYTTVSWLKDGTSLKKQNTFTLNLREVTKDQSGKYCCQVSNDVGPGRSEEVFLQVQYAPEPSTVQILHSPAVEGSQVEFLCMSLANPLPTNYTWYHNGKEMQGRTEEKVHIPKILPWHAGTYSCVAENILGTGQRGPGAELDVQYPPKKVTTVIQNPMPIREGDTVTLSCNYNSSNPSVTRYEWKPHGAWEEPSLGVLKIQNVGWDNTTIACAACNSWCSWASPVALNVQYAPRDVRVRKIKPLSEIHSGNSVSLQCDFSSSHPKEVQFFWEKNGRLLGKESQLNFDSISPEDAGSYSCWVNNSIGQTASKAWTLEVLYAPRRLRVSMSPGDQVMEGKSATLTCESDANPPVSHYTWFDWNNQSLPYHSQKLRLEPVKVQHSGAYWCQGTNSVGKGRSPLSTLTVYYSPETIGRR
Experimental: For CAR surface expression, TSLPR Fc, CD19Fc and CD22Fc peptide (R&D systems, Minneapolis, Minn.) were used followed anti Fc-AF647 (Jackson ImmunoResearch, West Grove, Pa.). T cell subtypes was further identified with anti-CD4 antibody conjugated to VioBlue fluorophore (Miltenyi Biotec Bergisch Gladbach, Germany). Dead cells in all studies were excluded by 7AAD staining (BD Biosciences, San Jose, Calif.). Flow data were analyzed with MACSQuantify software.
To develop the tandem CD22 and TSLPR targeting CARs, CD22-directed scFv 16P17 was used in either membrane-proximal or membrane-distal orientation (construct D0103 and D0104, respectively). For TSLPR-targeting, scFv 3G11 was used. Surface expression of the tandem TSLPR×CD22 CAR incorporating the human ScFv 16P17 together with the TSLPR scFv 3G11, when the TSLPR scFv is positioned in the membrane-distal orientation (D0103), or in the membrane-proximal orientation (D0104) is shown in FIG. 5. Specific detection of each scFv domain within the CAR structure was facilitated by CAR T cell staining with TSLPR-Fc peptide, or CD22-Fc peptide, followed by a secondary staining with anti-Fc AF647-labeled reagent, and detected in the APC channel by flow cytometry. In CAR construct D0103, in which CD22 scFv was membrane-proximal and the TSLPR scFv was membrane-distal, the TSLPR scFv was detected at 26% of the transduced cells, and CD22 scFv was detected at 11%. In CAR construct D0104 with the opposite binder orientation (i.e. the CD22 scFv was membrane-distal, and the TSLPR scFv was membrane-proximal), the detection levels were 75% and 39% for scFv TSLPR and CD22, respectively (FIG. 5).
The surface expression of the tandem TSLPR×CD22 CAR incorporating the human ScFv m971 in membrane-proximal orientation (D0111), and in the membrane-distal orientation (D0112) is shown in FIG. 8. Specific detection of each scFv domain within the CAR structure was facilitated by CAR T cell staining with TSLPR-Fc peptide, or CD22-Fc peptide, followed by a secondary staining with anti-Fc AF647-labeled reagent and detection in the APC channel by flow cytometry. In CAR construct D0111, in which CD22 scFv was membrane-proximal and the TSLPR scFv was membrane-distal, the TSLPR scFv was detected at 34% of the transduced cells, and CD22 scFv was detected at 11%.

Row | Binder | percent of transduced T cells stained by antigen-Fc [1] | percent of transduced T cells stained by antigen-Fc [2]
1 | D0103 (EF-1a-TSLPR-CD22 (16P17) CD8 BBz) (other, Tandem chimeric antigen receptor on human primary T cells: leader, TSLPR scFv 3G11 (membrane-distal), (GGGGS)5, CD22 scFv 16P17, CD8 hinge/TM, 4-1BB, CD3 zeta; also called CAR TSLPR-22 BBz; tandem D0103 TSLPR×CD22 CAR) QVTLKESGPGILKPSQTLSLTCSFSGFSLSTSGMGVGWIRQPSGKGLEWLAHIWWDDDKYYNPSLKSQLTISKDTSRNQVFLKITSVDTADTATYYCSRRPRGTMDAMDYWGQGTSVTVSSGGGGSGGGGSGGGGSDIVMTQAASSLSASLGDRVTISCRASQDISKYLNWYQQKPDGTVKLLIYYTSRLHSGVPSRFSGSGSGTDYSLTIRNLEQEDIATYFCQQVYTLPWTFGGGTKLEIKGGGGSGGGGSGGGGSGGGGSGGGGSQVQLQQSGPGLVKHSQTLSLTCAISGDSVSSNSAAWNWIRQSPSRGLEWLGRTYYRSKWYNDYAVSVKSRITINPDTSKNQFSLQLNSVTPEDTAVYYCAQEVEPHDAFDIWGQGTMVTVSSGGGGSGGGGSGGGGSDIQMTQSPSSVYASVGDKVTITCRASQDVSGWLAWYQQKPGLAPQLLISGASTLQGEVPSRFSGSGSGTDFTLTISSLQPEDFATYYCQQAKYFPYTFGQGTKLEIKAAATTTPAPRPPTPAPTIASQPLSLRPEACRPAAGGAVHTRGLDFACDIYIWAPLAGTCGVLLLSLVITLYCKRGRKKLLYIFKQPFMRPVQTTQEEDGCSCRFPEEEEGGCELRVKFSRSADAPAYQQGQNQLYNELNLGRREEYDVLDKRRGRDPEMGGKPRRKNPQEGLYNELQKDKMAEAYSEIGMKGERRRGKGHDGLYQGLSTATKDTYDALHMQALPPR | 26% | 11%
2 | D0112 (EF-1a-CD22 (m971)-TSLPR CD8 BBz) (other, Tandem chimeric antigen receptor on human primary T cells: leader, CD22 scFv m971 (membrane-distal), (GGGGS)5, TSLPR scFv 3G11, CD8 hinge/TM, 4-1BB, CD3 zeta; also called CAR 22m971-TSLPR BBz) QVQLQQSGPGLVKPSQTLSLTCAISGDSVSSNSAAWNWIRQSPSRGLEWLGRTYYRSKWYNDYAVSVKSRITINPDTSKNQFSLQLNSVTPEDTAVYYCAREVTGDLEDAFDIWGQGTMVTVSSGGGGSGGGGSGGGGSDIQMTQSPSSLSASVGDRVTITCRASQTIWSYLNWYQQRPGKAPNLLIYAASSLQSGVPSRFSGRGSGTDFTLTISSLQAEDFATYYCQQSYSIPQTFGQGTKLEIKGGGGSGGGGSGGGGSGGGGSGGGGSQVTLKESGPGILKPSQTLSLTCSFSGFSLSTSGMGVGWIRQPSGKGLEWLAHIWWDDDKYYNPSLKSQLTISKDTSRNQVFLKITSVDTADTATYYCSRRPRGTMDAMDYWGQGTSVTVSSGGGGSGGGGSGGGGSDIVMTQAASSLSASLGDRVTISCRASQDISKYLNWYQQKPDGTVKLLIYYTSRLHSGVPSRFSGSGSGTDYSLTIRNLEQEDIATYFCQQVYTLPWTFGGGTKLEIKAAATTTPAPRPPTPAPTIASQPLSLRPEACRPAAGGAVHTRGLDFACDIYIWAPLAGTCGVLLLSLVITLYCKRGRKKLLYIFKQPFMRPVQTTQEEDGCSCRFPEEEEGGCELRVKFSRSADAPAYQQGQNQLYNELNLGRREEYDVLDKRRGRDPEMGGKPRRKNPQEGLYNELQKDKMAEAYSEIGMKGERRRGKGHDGLYQGLSTATKDTYDALHMQALPPR | 73% | 39%
3 | D0111 (EF-1a-TSLPR-CD22 (m971) CD8 BBz) (other, Tandem chimeric antigen receptor on human primary T cells: leader, TSLPR scFv 3G11 (membrane-distal), (GGGGS)5, CD22 scFv m971, CD8 hinge/TM, 4-1BB, CD3 zeta; also called CAR TSLPR-22m971 BBz) QVTLKESGPGILKPSQTLSLTCSFSGFSLSTSGMGVGWIRQPSGKGLEWLAHIWWDDDKYYNPSLKSQLTISKDTSRNQVFLKITSVDTADTATYYCSRRPRGTMDAMDYWGQGTSVTVSSGGGGSGGGGSGGGGSDIVMTQAASSLSASLGDRVTISCRASQDISKYLNWYQQKPDGTVKLLIYYTSRLHSGVPSRFSGSGSGTDYSLTIRNLEQEDIATYFCQQVYTLPWTFGGGTKLEIKGGGGSGGGGSGGGGSGGGGSGGGGSQVQLQQSGPGLVKPSQTLSLTCAISGDSVSSNSAAWNWIRQSPSRGLEWLGRTYYRSKWYNDYAVSVKSRITINPDTSKNQFSLQLNSVTPEDTAVYYCAREVTGDLEDAFDIWGQGTMVTVSSGGGGSGGGGSGGGGSDIQMTQSPSSLSASVGDRVTITCRASQTIWSYLNWYQQRPGKAPNLLIYAASSLQSGVPSRFSGRGSGTDFTLTISSLQAEDFATYYCQQSYSIPQTFGQGTKLEIKAAATTTPAPRPPTPAPTIASQPLSLRPEACRPAAGGAVHTRGLDFACDIYIWAPLAGTCGVLLLSLVITLYCKRGRKKLLYIFKQPFMRPVQTTQEEDGCSCRFPEEEEGGCELRVKFSRSADAPAYQQGQNQLYNELNLGRREEYDVLDKRRGRDPEMGGKPRRKNPQEGLYNELQKDKMAEAYSEIGMKGERRRGKGHDGLYQGLSTATKDTYDALHMQALPPR | 34% | 11%
4 | D0104 (EF-1a-CD22 (16P17)-TSLPR CD8 BBz) (other, Tandem chimeric antigen receptor on human primary T cells: leader, CD22 scFv 16P17 (membrane-distal), (GGGGS)5, TSLPR scFv 3G11, CD8 hinge/TM, 4-1BB, CD3 zeta; also called CAR 22-TSLPR BBz; tandem D0104 CD22×TSLPR CAR) QVQLQQSGPGLVKHSQTLSLTCAISGDSVSSNSAAWNWIRQSPSRGLEWLGRTYYRSKWYNDYAVSVKSRITINPDTSKNQFSLQLNSVTPEDTAVYYCAQEVEPHDAFDIWGQGTMVTVSSGGGGSGGGGSGGGGSDIQMTQSPSSVYASVGDKVTITCRASQDVSGWLAWYQQKPGLAPQLLISGASTLQGEVPSRFSGSGSGTDFTLTISSLQPEDFATYYCQQAKYFPYTFGQGTKLEIKGGGGSGGGGSGGGGSGGGGSGGGGSQVTLKESGPGILKPSQTLSLTCSFSGFSLSTSGMGVGWIRQPSGKGLEWLAHIWWDDDKYYNPSLKSQLTISKDTSRNQVFLKITSVDTADTATYYCSRRPRGTMDAMDYWGQGTSVTVSSGGGGSGGGGSGGGGSDIVMTQAASSLSASLGDRVTISCRASQDISKYLNWYQQKPDGTVKLLIYYTSRLHSGVPSRFSGSGSGTDYSLTIRNLEQEDIATYFCQQVYTLPWTFGGGTKLEIKAAATTTPAPRPPTPAPTIASQPLSLRPEACRPAAGGAVHTRGLDFACDIYIWAPLAGTCGVLLLSLVITLYCKRGRKKLLYIFKQPFMRPVQTTQEEDGCSCRFPEEEEGGCELRVKFSRSADAPAYQQGQNQLYNELNLGRREEYDVLDKRRGRDPEMGGKPRRKNPQEGLYNELQKDKMAEAYSEIGMKGERRRGKGHDGLYQGLSTATKDTYDALHMQALPPR | 75% | 39%
